Article PMC3206013, “Unique Interplay between Sugar and Lipid in Determining the Antigenic Potency of Bacterial Antigens for NKT Cells” (PLoS Biology, 2011)

Target: biotinylated mouse CD1d/β2m, wild type, loaded with α-GalCer (mouse) (UniProt P11609)
Test: SPR; α-GalCer loaded

- Kd: 0.0399 µM
Substance: Vα14Vβ8.2 iNKT TCR (mouse invariant NKT cell T cell receptor)
